Substitutions are numbered along the chain they refer to.

From patent US20220112308A1 (Genentech, published 2022) come the findings set out here.

Sequences and labels used below:
B1: anti-KRas antibody 3A12 (antibody, V domains shown)
VH: EVQLVESGGGLVQPGGSLRLSCAASGFTFSSYSMNWVRQAPGKGLEWVSYISSSSSTIYYADSVKGRFTISRDNAKNSLYLQMNSLRAEDTAVYYCARGKGIVGWGFFGMDVWGQGTLVTVSS
VL: SVLTQPPSVSAAPGQKVTISCSGSSSNIGNNYVSWYQQLPGTAPKLLIYDNNKRPSGIPDRFSGSKSGTSATLGITGLQTGDEADYYCGTWDNSLSVWVFGGGTKLTVL
notes: also called Class II anti-KRas antibody
B2: anti-KRas antibody 2H11 (antibody, human IgG1, V domains shown)
VH: EVQLQESGPGLVKPPGTLSLTCAVSGGSISSSNWWSWVRQPPGKGLEWIGEIYHSGSTNYNPSLKSRVTISVDKSKNQFSLKLSSVTAADTAVYYCARGSSSWYDLGPFDYWGQGTLVTVSS
VL: not shown
notes: also called Class II anti-KRas antibody; CLAMP
B3: anti-KRas antibody 1E5 (antibody, V domains shown)
VH: EVQLVESGGGLVKPGGSLRLSCAASGFTFSSYSMNWVRQAPGKGLEWVSSISSSSSYIYYADSVKGRFTISRDNAKNSLYLQMNSLRAEDTAVYYCARTNNYGYRYFDYWGQGTLVTVSS
VL: LTQDPAVSVALGQTVRITCQGDSLRSYYASWYQQKPGQAPVLVIYGKNNRPSGIPDRFSGSSSGNTASLTITGAQAEDEADYYCNSRDSSGNHWVFGGGTKLTVL
notes: as for B1
B4: anti-KRas antibody 2A3 (antibody, human IgG1, V domains shown)
VH: B3 VH with T99A, N100T, N101S, Y102S, R105Y
VL: ELTQDPAVSVALGQTVRITCQGDSLRSYYASWYQQKPGQAPVLVIYGKNNRPSGIPDRFSGSSSGNTASLTITGAQAEDEADYYCNSRDSTDNHLWVFGGGTKLTVL
notes: as for B1
B5: anti-KRas antibody 1A5 (antibody, human IgG1, V domains shown)
VH: EVQLVESGGGLVQPGGSLRLSCAASGFTFSSYSMNWVRQAPGKGLEWVSYISSSSSTIYYADSVKGRFTISRDNAKNSLYLQMNSLRAEDTAVYYCARGFYVRNWFDPWGQGTLVTVSS
VL: AIQMTQSPSSLSASVGDRVTITCRASQGIRNDLGWYQQKPGKAPKLLIYAASSLQSGVPSRFSGSGSGTDFTLTISSLQPEDFATYYCLQDHDYPLTFGQGTKVEIK
notes: also called Class I anti-KRas antibody; 1A5-488 (labelled form in FACS)
B6: anti-KRas antibody 1B7 (antibody, human IgG1, V domains shown)
VH: EVQLVQSGAEVKKPGSSVKVSCKASGGTFSSYAISWVRQAPGQGLEWMGGIIPIFGTANYAQKFQGRVTITADESTSTAYMELSSLRSEDTAVYYCARYYDFWSGYPGGLFDVWGQGTLVTVSS
VL: B1 VL with N93S, S96T, V97G
notes: also called Class I anti-KRas antibody
B7: anti-KRas antibody 1A6 (antibody, human IgG1, V domains shown)
VH: B6 VH
VL: B1 VL with N93S, S96T, V97G, W98Y
notes: as for B6
B8: anti-KRas antibody 1D6 (antibody, human IgG1, V domains shown)
VH: EVQLVESGGGLVQPGGSLRLSCAASGFTFSSYAMSWVRQAPGKGLEWVSAISSSGSSTYYADSVKGRFTISRDNSKNTLYLQMNSLRAEDTAVYYCARDQGGYGYPGESWFDYWGQGTLVTVSS
VL: B5 VL with A1D, R30S, N31S, D32Y, G34A, L89Q, D91Y, H92Y, D93S, L96F
notes: as for B6
B9: anti-KRas antibody 2C1 (antibody, V domains shown)
VH: EVQLVESGGGLVKPGGSLRLSCAASGFTFSSYSMNWVRQAPGKGLEWVSSISSSSSYIYYADSVKGRFTISRDNAKNSLYLQMNSLRAEDTAVYYCARAFYSYMDVWGQGTLVTVSS
VL: not shown
notes: as for B6
B10: anti-KRas antibody 1F4 (antibody, human IgG1, V domains shown)
VH: EVQLVESGGGLVQPGGSLRLSCAASGFTFSSYSMNWVRQAPGKGLEWVSYISSSSSTIYYADSVKGRFTISRDNAKNSLYLQMNSLRAEDTAVYYCARSFGPYAFDVWGQGTLVTVSS
VL: not shown

The first assay has as its target T1, KRas^WT-GDP (recombinant) (human, UniProt P01116-2 2-169, GDP bound). Briefly: SPR, IgG captured by anti-human IgG1 Fc, KRas in solution, 25 C, 1:1 Langmuir fit.
Procedure: (§1) SPR experiments were carried out on the Mass-1 (Bruker) at 25° C. using HBS-P+(GE Healthcare) running buffer. 1 μg/mL of the anti-KRas antibodies were captured using an anti-HuIgG1 Fc capture kit (GE Healthcare). […] KRas^G12C-GDP was titrated using a dilution series from 5000-0 nM. KRas^G12C-GDP+ARS1620 was titrated using a dilution series from 1000-0 nM. KRas^G12C-GDP+ARS853 was titrated using a dilution series from 200-0 nM. KRasWT-GDP was titrated using a dilution series from 2000-0 nM. Sensorgrams were fit to a 1:1 Langmuir model to identify kinetic parameters.
As to B1, the Kd was 24 nM.

Regarding B2, the Kd amounted to 42 nM. On the same count and under the same terms, under B3 stands 411 nM; under B4, 71 nM; under B5, 159 nM.

In a further assay the target is T1, KRas^WT-GDP (recombinant). Briefly: SPR, IgG captured, KRas as analyte. Background: Surface plasmon resonance follows binding to a sensor surface in real time, without labels.
Procedure: as §1
Take B6: the binding result was “no binding (tested: titrated 2000-0 nM)”. Same read-out and setting: under B7 stands “no binding (tested: titrated 2000-0 nM)”; under B8, “no binding (tested: titrated 2000-0 nM)”. Same read-out and setting: under B9 stands “no binding (tested: titrated 2000-0 nM)”; under B10, “no binding (tested: titrated 2000-0 nM)”.

For the next assay, the target named is KRas^WT-GTP (recombinant) (human, UniProt P01116-2 2-169, GTP bound as printed in Table 1B). As to the kind of experiment: SPR, KRas bound to GTP (Table 1B).
As to B4, the Kd amounted to 7 nM.

By Kd is commonly meant the free concentration of one partner at which half of the binding sites on the other are occupied at equilibrium, for simple one-to-one binding.
